According to patent publication US20220372138A1 (IOMX THERAPEUTICS, published 2022):

Experiments:
[1] = molecular target: T1, ECD of murine IGSF11, recombinant biotinylated (mouse, UniProt P0C673 23-240); assay: ELISA RFU>1.0
T1 construct: whole entry named; also called Mouse IGSF11
T1 sequence: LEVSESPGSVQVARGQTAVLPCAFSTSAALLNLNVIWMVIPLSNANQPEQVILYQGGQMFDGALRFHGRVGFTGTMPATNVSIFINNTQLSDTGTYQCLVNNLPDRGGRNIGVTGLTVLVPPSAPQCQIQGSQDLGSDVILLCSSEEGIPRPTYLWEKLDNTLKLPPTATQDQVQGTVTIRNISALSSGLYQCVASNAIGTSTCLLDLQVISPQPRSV

[2] = molecular target: T2, extracellular domain (ECD) of human IGSF11 (VSIG3), recombinant (human, UniProt Q5DX21 23-241); assay: ELISA RFU 0.5-1.0
T2 construct: biotinylated where captured on streptavidin; tags of the reagent not always stated; also called IGSF11 (ECD domain); ECD-IGSF11
T2 sequence: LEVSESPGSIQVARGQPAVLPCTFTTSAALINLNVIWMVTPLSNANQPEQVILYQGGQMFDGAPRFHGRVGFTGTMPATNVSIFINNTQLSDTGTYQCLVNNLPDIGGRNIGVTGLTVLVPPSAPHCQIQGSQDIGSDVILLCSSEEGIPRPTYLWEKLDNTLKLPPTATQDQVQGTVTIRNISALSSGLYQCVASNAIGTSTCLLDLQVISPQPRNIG

[3] = molecular target: T3, full-length ECD of human IGSF11 fused to murine Fc (human, UniProt Q5DX21 23-241); assay: IgG ELISA;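 further: ELISA binding of IgG antibodies to plate-coated IGSF11 Fc-fusion proteins (full-length ECD, IgV or IgC2 domain), detected via HRP-labelled anti-human IgG with TMB development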
T3 construct: also called Fc-fusion IGSF11 ECD; not shown: murine Fc
T3 sequence: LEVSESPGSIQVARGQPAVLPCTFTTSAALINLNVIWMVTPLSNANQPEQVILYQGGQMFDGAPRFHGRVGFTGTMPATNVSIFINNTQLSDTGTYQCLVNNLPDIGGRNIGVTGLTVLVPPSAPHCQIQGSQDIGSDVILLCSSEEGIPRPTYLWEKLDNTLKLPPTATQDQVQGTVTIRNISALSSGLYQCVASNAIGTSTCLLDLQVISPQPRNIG

[4] = molecular target: T4, IgV domain of human IGSF11 fused to murine IgG2a Fc (human, UniProt Q5DX21 23-143); assay: IgG ELISA;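 further: ELISA binding of IgG antibodies to plate-coated IGSF11 Fc-fusion proteins (full-length ECD, IgV or IgC2 domain), detected via HRP-labelled anti-human IgG with TMB development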
T4 construct: not shown: murine IgG2a Fc-region
T4 sequence: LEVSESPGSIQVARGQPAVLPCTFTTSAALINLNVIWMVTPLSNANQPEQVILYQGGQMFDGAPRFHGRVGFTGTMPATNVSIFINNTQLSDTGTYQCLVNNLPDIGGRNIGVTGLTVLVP

[5] = molecular target: T1, ECD of murine IGSF11, recombinant …; assay: Fab ELISA
Streptavidin = Streptavidin (UniProt P22629 37-163, limits assumed); assay: Fab ELISA
[6] = molecular target: T1, ECD of murine IGSF11, recombinant …; assay: ELISA RFU 0.5-1.0
[7] = molecular target: T5, human IGSF11 (VSIG3) ECD, His-tagged (human, UniProt Q5DX21 23-241); assay: IgG1 ELISA EC50 <0.02 nM
T5 construct: in part bought (SinoBiological 13094-H08H); also called HIS-IGSF11; IGSF11-HIS; not shown: His tag
T5 sequence: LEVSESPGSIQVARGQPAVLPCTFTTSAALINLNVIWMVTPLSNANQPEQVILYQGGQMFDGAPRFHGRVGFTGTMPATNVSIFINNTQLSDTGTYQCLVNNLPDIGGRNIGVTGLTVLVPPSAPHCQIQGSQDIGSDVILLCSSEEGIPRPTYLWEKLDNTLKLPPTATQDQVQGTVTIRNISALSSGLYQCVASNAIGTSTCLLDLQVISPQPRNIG

[8] = molecular target: T6, human IGSF11 (VSIG3) expressed on cells (human, UniProt Q5DX21 23-431); assay: FACS, DMS 273 cells with scrambled control siRNA (SC)
T6 sequence: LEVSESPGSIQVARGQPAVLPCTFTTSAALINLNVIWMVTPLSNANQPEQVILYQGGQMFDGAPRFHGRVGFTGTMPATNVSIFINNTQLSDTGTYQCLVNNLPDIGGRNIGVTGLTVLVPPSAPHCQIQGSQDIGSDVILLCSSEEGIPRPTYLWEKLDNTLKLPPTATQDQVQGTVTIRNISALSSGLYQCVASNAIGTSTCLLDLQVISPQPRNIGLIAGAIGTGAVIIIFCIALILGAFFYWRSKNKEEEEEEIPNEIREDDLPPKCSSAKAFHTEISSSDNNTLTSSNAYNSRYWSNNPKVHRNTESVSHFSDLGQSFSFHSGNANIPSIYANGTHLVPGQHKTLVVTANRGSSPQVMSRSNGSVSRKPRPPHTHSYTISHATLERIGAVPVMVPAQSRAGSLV

[9] = molecular target: T6, human IGSF11 (VSIG3) expressed on cells; assay: FACS, M579-A2-luc cells with scrambled control siRNA (SC)
[10] = molecular target: T6, human IGSF11 (VSIG3) expressed on cells; assay: FACS, DMS 273 cells with IGSF11 siRNA (KD, knock-down control)
[11] = molecular target: T6, human IGSF11 (VSIG3) expressed on cells; assay: FACS, M579-A2-luc cells with IGSF11 siRNA (KD, knock-down control)

Chain of Streptavidin (P22629 37-163 limits assumed): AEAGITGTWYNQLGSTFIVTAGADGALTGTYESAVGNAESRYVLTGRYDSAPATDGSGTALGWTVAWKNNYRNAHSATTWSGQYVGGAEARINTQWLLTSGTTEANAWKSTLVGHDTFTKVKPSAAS

B1: A-035 (scFv format) (scFv, V domains shown)
VH: QVQLVQSGAEVKKPGASVKVSCKASGYTFTGYYMHWVRQAPGQGLEWMGWINPNSGNTGYAQKFQGRVTMTRNTSISTAYMELSSLRSEDTAVYYCARGRLERGYWYFDLWGRGTLVTVSS
VL: NFMLTQPHSVSESPGRTVTISCTRSSGSITSNYVQWYQQRPGSAPTILIYEDKERPSEVPDRFSGSIDISSNSASLTISGLKTEDEADYYCQSYGGTSQGVLFGGGTKVTVL
notes: scFv
- ELISA binding signal (RFU) [1]: > 1 rfu
- ELISA binding signal (RFU) [2]: 0.5 to 1 rfu

B2: C-008 (IgG1 format) (antibody, V domains shown)
VH: EVQLLESGGGLVQPGGSLRLSCAASGFTFSSYAMSWVRQAPGKGLEWVSAISGSGGSTYYADSVKGRFTISRDNSKNTLYLQMNSLRAEDTAVYYCTTDNGHNRDWGQGTLVTVSS
VL: ASVLTQPPSVSAAPGQKVTISCSGSSSNIGNNYVSWYQQLPGTAPKLLIYDNNKRPSGIPDRFSGSKSGTSATLGITGLQAEDEADYYCGTWTRSSGVFGGGTKLTVL
- EC50 [3]: < 1 nM
- EC50 [4]: < 1 nM

B3: C-009 (IgG1 format) (antibody, V domains shown)
VH: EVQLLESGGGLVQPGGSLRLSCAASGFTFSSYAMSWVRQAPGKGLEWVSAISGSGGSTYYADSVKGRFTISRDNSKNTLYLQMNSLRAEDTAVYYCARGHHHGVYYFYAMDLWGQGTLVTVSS
VL: SYELTQPPSVSVSPGQTASITCSGDKLGDKYASWYQQKPGQSPVLVIYQDSKRPSGIPERFSGSNSGNTATLTISGTQAEDEADYYCQSYSGSSTLHVFGGGTKLTVL
- EC50 [3]: 1 to 20 nM
- EC50 [4]: < 1 nM

B4: C-024 (IgG1 format) (antibody, V domains shown)
VH: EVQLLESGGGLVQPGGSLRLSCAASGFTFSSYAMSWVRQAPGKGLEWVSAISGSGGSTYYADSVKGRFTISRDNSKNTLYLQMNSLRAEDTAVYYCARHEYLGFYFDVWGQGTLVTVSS
VL: SYELTQPPSVSVSPGQTASITCSGDKLGDKYASWYQQKPGQSPVLVIYQDSKRPSGIPERFSGSNSGNTATLTISGTQAEDEADYYCLASHRLTLNYVFGGGTKLTVL
- EC50 [3]: 1 to 20 nM
- EC50 [4]: 1 to 20 nM

B5: C-021 (Fab format) (Fab, V domains shown)
VH: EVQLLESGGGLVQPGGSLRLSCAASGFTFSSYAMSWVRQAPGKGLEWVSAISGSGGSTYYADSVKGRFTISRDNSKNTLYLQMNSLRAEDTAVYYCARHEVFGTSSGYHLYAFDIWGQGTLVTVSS
VL: DIQMTQSPSSLSASVGDRVTITCRASQSISSYLNWYQQKPGKAPKLLIYAASSLQSGVPSRFSGSGSGTDFTLTISSLQPEDFATYYCQQWSGLPLTFGQGTKVEIK
notes: Fab from E. coli lysate
- A450 [5]: < 1
- A450 (Streptavidin): < 0.1

B6: A-007 (scFv format) (scFv, V domains shown)
VH: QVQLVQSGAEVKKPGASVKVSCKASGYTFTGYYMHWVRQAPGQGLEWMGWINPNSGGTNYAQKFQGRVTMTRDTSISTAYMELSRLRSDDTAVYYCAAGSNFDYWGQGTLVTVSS
VL: QSALTQPASVSGSPGQSITIACTGSSSDIGSFSYVSWYQQRPGKAPTLIIYGVNNRPLGVSRRFSGSKSGNTASLSISGLQAEDEADYYCSSYTRRSTVIFGGGTKLTVL
notes: scFv
- ELISA binding signal (RFU) [2]: 0.5 to 1 rfu
- ELISA binding signal (RFU) [6]: 0.5 to 1 rfu

B7: A-010 (scFv format) (scFv, V domains shown)
VH: QVQLVQSGAEVKKPGASVKVSCKASGYTFTSYGISWVRQAPGQGLEWMGWISAYNGNTNYAQKLQGRVTMTTDTSTSTAYMELRSLRSDDTAVYYCARVPAWSGQFDYWGQGTLVTVSS
VL: QSALTQPASVSGSPGQSITISCTGSSSDVGGYNYVSWYQQYPGKAPKLMIYDVRSRPSGVSNRFSGSKSGNTASLTISGLQAEDEADYYCTSYTSSNTLVIFGGGTKVTVL
notes: scFv
- ELISA binding signal (RFU) [2]: 0.5 to 1 rfu
- ELISA binding signal (RFU) [6]: 0.5 to 1 rfu

B8: C-025 (IgG1 format) (antibody, V domains shown)
VH: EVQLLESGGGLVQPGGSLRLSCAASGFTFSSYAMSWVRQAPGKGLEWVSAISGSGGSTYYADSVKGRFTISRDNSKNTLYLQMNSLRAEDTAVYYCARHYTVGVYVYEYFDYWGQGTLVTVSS
VL: SYELTQPPSVSVSPGQTASITCSGDKLGDKYASWYQQKPGQSPVLVIYQDSKRPSGIPERFSGSNSGNTATLTISGTQAEDEADYYCQSYATAGFVFGGGTKLTVL
- EC50 [3]: 1 to 20 nM
- EC50 [4]: < 1 nM

B9: A-016 (IgG1 format) (antibody, V domains shown)
VH: QVQLQESGAEVKKPGASVKVSCKASGYTFTGYYMHWVRQAPGQGLEWMGGIIPIFGTANYAQKFQGRVTITADESTSTAYMELSSLRSEDTAVYYCAGAGMELTRSGAYYYYGMDVWGQGTTVTVSS
VL: QSALTQPASVSGSPGQSITISCTGTSSDIGGYTFVSWYQQHPGKAPKVMIHDVNNRPSGISNRFSGSKSGNTASLTISGLQAEDEADYYCSSVTSTNTYVFGTGTKVTVL
notes: human IgG1 format
- EC50 [7]: < 0.02 nM

B10: A-015 (IgG1 format) (antibody, V domains shown)
VH: not shown
VL: QPVLTQSPSASASLGASVKLTCTLSSGHTNYAIAWRQQQPGKAPRYLMLLNSDGSHTRGGGIPDRFSGSSSGAERYLTISSLQSEDEADYYCMIWHNNAWVFGGGTKLAVL
notes: human IgG1 format
- % binding (FACS heat-map) [8]: 5.97%
- % binding (FACS heat-map) [9]: 1.17%
- % binding (FACS heat-map) [10]: 1.6%
- % binding (FACS heat-map) [11]: 1.3%

B11: A-015 (scFv format) (scFv, V domains shown)
VH: not shown
VL: QPVLTQSPSASASLGASVKLTCTLSSGHTNYAIAWRQQQPGKAPRYLMLLNSDGSHTRGGGIPDRFSGSSSGAERYLTISSLQSEDEADYYCMIWHNNAWVFGGGTKLAVL
notes: scFv
- ELISA binding signal (RFU) [2]: 0.5 to 1 rfu
- ELISA binding signal (RFU) [6]: 0.5 to 1 rfu

B12: C-026 (IgG1 format) (antibody, V domains shown)
VH: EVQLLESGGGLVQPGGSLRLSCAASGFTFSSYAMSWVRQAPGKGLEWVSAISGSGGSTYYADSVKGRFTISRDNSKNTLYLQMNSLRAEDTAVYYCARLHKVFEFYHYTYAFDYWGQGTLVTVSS
VL: ASVLTQPPSVSAAPGQKVTISCSGSSSNIGNNYVSWYQQLPGTAPKLLIYDNNKRPSGIPDRFSGSKSGTSATLGITGLQAEDEADYYCASYSSETSGWVFGGGTKLTVL
- EC50 [3]: 1 to 20 nM
- EC50 [4]: < 1 nM

B13: A-004 (scFv format) (scFv, V domains shown)
VH: EVQLVESGGGLVKPGGSLRLSCAASGFTFSSYSMNWVRQAPGKGLEWVSSISSSSSYIYYADSVKGRFTISRDNAKNSLYLQMNSLRAEDTAVYYCARGQLLWFGESALIDAFDIWGQGTMVTVSS
VL: EIVLTQSPSSLSASVGDRVTITCRASQSISSYLNWYQLKPGKAPKLLIYAASILQSGVPSRFSGSGSGTDFTLTISSLQPEDFAAYYCQQSYSTPRTFGQGTKLEIK
notes: scFv
- ELISA binding signal (RFU) [1]: > 1 rfu
- ELISA binding signal (RFU) [2]: 0.5 to 1 rfu

B14: A-001 (IgG1 format) (antibody, V domains shown)
VH: EVQLVESGGGLVKPGGSLRLSCAASGFTFSSYSMNWVRQAPGKGLEWVSSISSSSSYIYYADSVKGRFTISRDNAKNSLYLQMNSLRAEDTAVYYCVRSIIVQALGITSVFDIWGQGTMVTVSS
VL: AIRLTQSPSSLSASVGDRVTISCRASQIISNHLNWYQQKPGKAPKLLIYAASRLQTGVPSRFSGSGSETDYTLTISSLQPEDFATYYCQQSYSNPRTFGHGTKVEIK
notes: human IgG1 format
- EC50 [7]: < 0.02 nM

B15: A-006 (scFv format) (scFv, V domains shown)
VH: EVQLVESGGGLIQPGGSLRLSCAASGFTVSSNYMSWVRQAPGKGLEWVSVIYSGGSTYYADSVKGRFTISRDNSKNTLYLQMNSLRAEDTAVYYCARGNPYYYGDLQVNFDYWGQGTLVTVSS
VL: QAVVTQEPSLTVSPGGTVTLTCASSTGAVTSGYYPNWFQQKPGQAPRPLIYSTSNKHSWTPARFSGSLLGGKAALTLSGVQPDDEAEYYCLLYYGGDWVFGGGTKLTVL
notes: scFv
- ELISA binding signal (RFU) [2]: 0.5 to 1 rfu
- ELISA binding signal (RFU) [6]: 0.5 to 1 rfu

B16: A-012 (scFv format) (scFv, V domains shown)
VH: EVQLLESGGGLIQPGGSLRLSCAVSGFTVSSNYMSWVRQAPGKGLEWVSVIYSGGSTYYADSVKGRFTISRDNSKNTLYLQMNSLRAEDTAVYYCARGNPYYYGDLQVNFDYWGQGTLVTVSS
VL: QAVVTQEPSLTVSPGGTVTLTCASSTGAVTSGYYPNWFQQKPGQAPRALIYSTSNKHSWTPARFSGSLLGGKAALTLSGVQPEDEAEYYCLLYYGGAWVFGGGTKLTVL
notes: scFv
- ELISA binding signal (RFU) [2]: 0.5 to 1 rfu
- ELISA binding signal (RFU) [6]: 0.5 to 1 rfu

B17: A-013 (scFv format) (scFv, V domains shown)
VH: EVQLVESGGGLIQPGGSLRLSCAASGFTVSSNYMSWVRQAPGKGLEWVSVIYSGGSTYYADSVKGRFTISRDNSKNTLYLQMNSLRAEDTAVYYCARGNPYYYGDLQVNFDYWGQGTLVTVSS
VL: QAVVTQEPSLTVSPGGTVTLTCASSTGAVTSAYYPNWFQQKPGQAPRALIYSTSNKHSWTPARFSGSLLGGKAALTLSGVQPEDEADYYCLLYYGGAWVFGGGTKLTVL
notes: scFv
- ELISA binding signal (RFU) [2]: 0.5 to 1 rfu
- ELISA binding signal (RFU) [6]: 0.5 to 1 rfu
